The results in this text go back to patent US11278600B2, “Human alpha-galactosidase variants” (Codexis, Inc., priority 2014, dated 2022).

Common to all, as to assay type: biochemical
The nature of series [1]: HTP-analysis of yeast culture supernatants, no challenge (MUGal hydrolysis). The note with it: activity of the variant/activity of WT GLA (SEQ ID NO: 5), yeast supernatant. An outline of the steps: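 GLA variants were expressed in INVSc1 yeast grown in SD-Ura broth with glucose at 30° C., and culture supernatants were collected after 66-84 h. Supernatant was mixed with McIlvaine buffer pH 4.8 and MUGal (2 mM stock) in 50 mM citrate, 200 mM KCl, pH 4.6, incubated at 37° C. for 30-180 minutes, then quenched with sodium carbonate.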

Series [2] is described as follows: HTP-analysis of supernatants pretreated with acid (MUGal hydrolysis). As to conditions: challenge at pH 4.2; activity of the variant/activity of WT GLA (SEQ ID NO: 5); yeast supernatant. In short, it runs like this: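 Fluorescence of MUGal hydrolysis (Ex. 355 nm, Em. 448 nm) is read after sodium carbonate quench. The enzyme source is INVSc1 yeast culture supernatant, first exposed to pH 3.3-4.3 McIlvaine buffer at 37° C. for 1-3 h, then reacted at pH 4.8 for 30-180 minutes.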

A short description of series [3]: HTP-analysis of supernatants pretreated with base (MUGal hydrolysis). The note with it: challenge at pH 7.1; activity of the variant/activity of WT GLA (SEQ ID NO: 5); yeast supernatant. In short, it runs like this: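 GLA variants were secreted by transformed INVSc1 yeast grown 66-84 h at 30° C. Supernatants were exposed to neutral-to-basic buffers (pH 7.0-9.7) at 37° C for 1-18 h, then assayed with MUGal in acidic citrate/McIlvaine buffer, with fluorescence read after quenching.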

B1: 89 (protein)
chain: LDNGLARTPTMGWLHWERFMCNLDCQEEPDSCISEKLFMEMAELMVSEGWKDAGYEYLCIDDCWMAPQRDSEGRLQADPQRFPHGIRQLANYVHSKGLKLGIYADVGNKTCAGFPGSFGYYDIDAQTFADWGVDLLKFDGCYCDSLENLADGYKHMSLALNRTGRSIVYSCEWPLYMWPFQKPNYTEIRQYCNHWRNFADIDDSWKSIKSILDWTSFNQERIVDVAGPGGWNDPDMLVIGNFGLSWNQQVTQMALWAIMAAPLFMSNDLRHISPQAKALLQDKDVIAINQDPLGKQGYQLRQGDNFEVWERPLSGLAWAVAMINRQEIGGPRSYTIAVASLGKGVACNPACFITQLLPVKRKLGFYEWTSRLRSHINPTGTVLLQLENTMQMSKTLLL
modifications: Synthetic Polypeptide sequence of Variant No. 89 of mature Human GLA
Turning to B1, in series [1], the “Relative Activity of GLA Variants After No Challenge (NC)” value is recorded as “++ (++ = >1.5 to 2.5 relative activity over WT GLA (SEQ ID NO: 5))”. Moreover, in series [2], the “Relative Activity of GLA Variants After Challenge at pH 4.2” value (shortened to “Relative Activity … at pH 4.2”) is “+ (+ = 0.5 to 1.5 relative activity over WT GLA (SEQ ID NO: 5))”. In addition, in series [3], the “Relative Activity of GLA Variants After Challenge at pH 7.1” value (“Relative Activity … at pH 7.1” below) is given as “+ (+ = 0.5 to 1.5 relative activity over WT GLA (SEQ ID NO: 5))”.

B2: 95 (protein)
chain: LDNGLARTPTMGWLHWERFMCNLDCQEEPDSCISEKLFMEMAELMVSEGWKDAGYEYLCIDDCWMAPQRDSEGRLQADPQRFPHGIRQLANYVHSKGLKLGIYADVGNKTCAGFPGSFGYYDIDAQTFADWGVDLLKFDGCYCDSLENLADGYKHMSAALNRTGRSIVYSCEWPLYMWPFQKPNYTEIRQYCNHWRNFADIDDSWKSIKSILDWTSFNQERIVDVAGPGGWNDPDMLVIGNFGLSWNQQVTQMALWAIMAAPLFMSNDLRHISPQAKALLQDKDVIAINQDPLGKQGYQLRQGDNFEVWERPLSGLAWAVAMINRQEIGGPRSYTIAVASLGKGVACNPACFITQLLPVKRKLGFYEWTSRLRSHINPTGTVLLQLENTMQMSKDLLL
modifications: Synthetic Polypeptide sequence of Variant No. 95 of mature Human GLA
In the case of B2, the “Relative Activity of GLA Variants After No Challenge (NC)” value in series [1] was “+ (+ = 0.5 to 1.5 relative activity over WT GLA (SEQ ID NO: 5))”. Further, in series [2], the “Relative Activity … at pH 4.2” value is on record as “+ (+ = 0.5 to 1.5 relative activity over WT GLA (SEQ ID NO: 5))”. Besides, in series [3], the “Relative Activity … at pH 7.1” value is listed as “+ (+ = 0.5 to 1.5 relative activity over WT GLA (SEQ ID NO: 5))”.

B3: 90 (protein)
chain: LDNGLARTPTMGWLHWERFMCNLDCQEEPDSCISEKLFMEMAELMVSEGWKDAGYEYLCIDDCWMAPQRDSEGRLQADPQRFPHGIRQLANYVHSIGLKLGIYADVGNKTCAGFPGSFGYYDIDAQTFADWGVDLLKFDGCYCDSLENLADGYKHMSLALNRTGRSIVYSCEWPLYMWPFQKPNYTEIRQYCNHWRNFADIDDSWKSIKSILDWTSFNQERIVDVAGPGGWNDPDMLVIGNFGLSWNQQVTQMALWAIMAAPLFMSNDLRHISPQAKALLQDKDVIAINQDPLGKQGYQLRQGDNFEVWERPLSGLAWAVAMINRQEIGGPRSYTIAVASLGKGVACNPACFITQLLPVKRKLGFYEWTSRLRSHINPTGTVLLQLENTMQMSKDLLL
modifications: Synthetic Polypeptide sequence of Variant No. 90 of mature Human GLA
In the case of B3, the “Relative Activity of GLA Variants After No Challenge (NC)” value in series [1] was “+ (+ = 0.5 to 1.5 relative activity over WT GLA (SEQ ID NO: 5))”. In series [2], the “Relative Activity … at pH 4.2” value is on record as “+ (+ = 0.5 to 1.5 relative activity over WT GLA (SEQ ID NO: 5))”. The “Relative Activity … at pH 7.1” value in series [3] was “+ (+ = 0.5 to 1.5 relative activity over WT GLA (SEQ ID NO: 5))”.

B4: 94 (protein)
chain: LDNGLARTPTMGWLHWERFMCNLDCQEEPDSCISEKLFMEMAELMVSEGWKDAGYEYLCIDDCWMAPQRDSEGRLQADPQRFPHGIRQLANYVHSKGLKFGIYADVGNKTCAGFPGSFGYYDIDAQTFADWGVDLLKFDGCYCDSLENLADGYKHMSLALNRTGRSIVYSCEWPLYMWPFQKPNYTEIRQYCNHWRNFADIDDSWKSIKSILDWTSFNQERIVDVAGPGGWNDPDMLVIGNFGLSWNQQVTQMALWAIMAAPLFMSNDLRHISPQAKALLQDKDVIAINQDPLGKQGYQLRQGDNFEVWERPLSGLAWAVAMINRQEIGGPRSYTIAVASLGKGVACNPACFITQLLPVKRKLGFYEWTSRLRSHINPTGTVLLQLENTMQMSKDLLL
modifications: Synthetic Polypeptide sequence of Variant No. 94 of mature Human GLA
Regarding B4, the “Relative Activity of GLA Variants After No Challenge (NC)” value in series [1] was “+ (+ = 0.5 to 1.5 relative activity over WT GLA (SEQ ID NO: 5))”. In addition, the “Relative Activity … at pH 4.2” value in series [2] was “+ (+ = 0.5 to 1.5 relative activity over WT GLA (SEQ ID NO: 5))”. Further, the “Relative Activity … at pH 7.1” value in series [3] was “+ (+ = 0.5 to 1.5 relative activity over WT GLA (SEQ ID NO: 5))”.

B5: 92 (protein)
chain: LDNGLARTPTMGWLHWERFMCNLDCQEEPDSCISEKLFMEMAELMVSEGWKDAGYEYLCIDDCWMAPQRDSEGRLQADPQRFPHGIRQLANYVHSRGLKLGIYADVGNKTCAGFPGSFGYYDIDAQTFADWGVDLLKFDGCYCDSLENLADGYKHMSLALNRTGRSIVYSCEWPLYMWPFQKPNYTEIRQYCNHWRNFADIDDSWKSIKSILDWTSFNQERIVDVAGPGGWNDPDMLVIGNFGLSWNQQVTQMALWAIMAAPLFMSNDLRHISPQAKALLQDKDVIAINQDPLGKQGYQLRQGDNFEVWERPLSGLAWAVAMINRQEIGGPRSYTIAVASLGKGVACNPACFITQLLPVKRKLGFYEWTSRLRSHINPTGTVLLQLENTMQMSKDLLL
modifications: Synthetic Polypeptide sequence of Variant No. 92 of mature Human GLA
As for B5, the “Relative Activity of GLA Variants After No Challenge (NC)” value in series [1] is on record as “+ (+ = 0.5 to 1.5 relative activity over WT GLA (SEQ ID NO: 5))”. In addition, the “Relative Activity … at pH 4.2” value in series [2] is reported as “+ (+ = 0.5 to 1.5 relative activity over WT GLA (SEQ ID NO: 5))”. In series [3], the “Relative Activity … at pH 7.1” value is on record as “+ (+ = 0.5 to 1.5 relative activity over WT GLA (SEQ ID NO: 5))”.

B6: 93 (protein)
chain: LDNGLARTPTMGWLHWERFMCNLDCQEEPDSCISEKLFMEMAELMVSEGWKDAGYEYLCIDDCWMAPQRDSEGRLQADPQRFPHGIRQLANYVHSRGLKLGIYADVGNKTCAGFPGSFGYYDIDAQTFADWGVDLLKFDGCYCDSLENLADGYKHMSLALNRTGRSIVYSCEWPLYMWPFQKPNYTEIRQYCNHWRNFADIDDSWKSIKSILDWTSFNQERIVDVAGPGGWNDPDMLVIGNFGLSWNQQVTQMALWAIMAAPLFMSNDLRHISPQAKALLQDKDVIAINQDPLGKQGYQLRQGDNFEVWERPLSGLAWAVAMINRQEIGGPRSYTIAVASLGKGVACNPACFITQLLPVKRKLGFYEWTSRLRSHINPTGTVLLQLENTMQMSKDLVL
modifications: Synthetic Polypeptide sequence of Variant No. 93 of mature Human GLA
Take B6: the “Relative Activity of GLA Variants After No Challenge (NC)” value in series [1] is reported as “++ (++ = >1.5 to 2.5 relative activity over WT GLA (SEQ ID NO: 5))”. The “Relative Activity … at pH 4.2” value in series [2] is recorded as “+++ (+++ = >2.5 relative activity over WT GLA (SEQ ID NO: 5))”. In addition, in series [3], the “Relative Activity … at pH 7.1” value is reported as “+ (+ = 0.5 to 1.5 relative activity over WT GLA (SEQ ID NO: 5))”.

B7: 91 (protein)
chain: LDNGLARTPTMGWLHWERFMCNLDCQEEPDSCISEKLFMEMAELMVSEGWKDAGYEYLCIDDCWMAPQRDSEGRLQADPQRFPHGIRQLANYVHSLGLKLGIYADVGNKTCAGFPGSFGYYDIDAQTFADWGVDLLKFDGCYCDSLENLADGYKHMSLALNRTGRSIVYSCEWPLYMWPFQKPNYTEIRQYCNHWRNFADIDDSWKSIKSILDWTSFNQERIVDVAGPGGWNDPDMLVIGNFGLSWNQQVTQMALWAIMAAPLFMSNDLRHISPQAKALLQDKDVIAINQDPLGKQGYQLRQGDNFEVWERPLSGLAWAVAMINRQEIGGPRSYTIAVASLGKGVACNPACFITQLLPVKRKLGFYEWTSRLRSHINPTGTVLLQLENTMQMSKDLLL
modifications: Synthetic Polypeptide sequence of Variant No. 91 of mature Human GLA
As to B7, the “Relative Activity of GLA Variants After No Challenge (NC)” value in series [1] was “+ (+ = 0.5 to 1.5 relative activity over WT GLA (SEQ ID NO: 5))”. Besides, in series [2], the “Relative Activity … at pH 4.2” value is reported as “+ (+ = 0.5 to 1.5 relative activity over WT GLA (SEQ ID NO: 5))”. Also, the “Relative Activity … at pH 7.1” value in series [3] is “++ (++ = >1.5 to 2.5 relative activity over WT GLA (SEQ ID NO: 5))”.

B8: 96 (protein)
chain: LDNGLARTPTMGWLHWERFMCNLDCQEEPDSCISEKLFMEMAELMVSEGWKDAGYEYLCIDDCWMAPQRDSEGRLQADPQRFPHGIRQLANYVHSKGLKLGIYADVGNKTCAGFPGSFGYYDIDAQTFADWGVDLLKFDGCYCDSLENLADGYKHMSIALNRTGRSIVYSCEWPLYMWPFQKPNYTEIRQYCNHWRNFADIDDSWKSIKSILDWTSFNQERIVDVAGPGGWNDPDMLVIGNFGLSWNQQVTQMALWAIMAAPLFMSNDLRHISPQAKALLQDKDVIAINQDPLGKQGYQLRQGDNFEVWERPLSGLAWAVAMINRQEIGGPRSYTIAVASLGKGVACNPACFITQLLPVKRKLGFYEWTSRLRSHINPTGTVLLQLENTMQMSKDLLL
modifications: Synthetic Polypeptide sequence of Variant No. 96 of mature Human GLA
For the molecule B8, in series [1], the “Relative Activity of GLA Variants After No Challenge (NC)” value is “+ (+ = 0.5 to 1.5 relative activity over WT GLA (SEQ ID NO: 5))”. In addition, the “Relative Activity … at pH 4.2” value in series [2] is recorded as “+ (+ = 0.5 to 1.5 relative activity over WT GLA (SEQ ID NO: 5))”. Further, the “Relative Activity … at pH 7.1” value in series [3] is reported as “+ (+ = 0.5 to 1.5 relative activity over WT GLA (SEQ ID NO: 5))”.
